In publication PMC4108407, “6-Hydroxy-3-Succinoylpyridine Hydroxylase Catalyzes a Central Step of Nicotine Degradation in Agrobacterium tumefaciens S33” (PLoS ONE, 2014) one finds Km data, which are given here for one substance.

As a reminder, the Km is the concentration of substrate that gives half-maximal velocity.

Assay in all cases: purified protein
The test system of data set [1] is NC(=O)C1=CN([C@@H]2O[C@H](COP(=O)(O)OP(=O)(O)OC[C@H]3O[C@@H](n4cnc5c(N)ncnc54)[C@H](OP(=O)(O)O)[C@@H]3O)[C@@H](O)[C@H]2O)C=CC1. The conditions noted are these: 50 mM phosphate buffer pH 8.0, 30°C, co-substrate HSP, FAD.
The subject of data set [2] is NC(=O)C1=CN([C@@H]2O[C@H](COP(=O)(O)OP(=O)(O)OC[C@H]3O[C@@H](n4cnc5c(N)ncnc54)[C@H](O)[C@@H]3O)[C@@H](O)[C@H]2O)C=CC1. The conditions noted are these: 50 mM phosphate buffer pH 8.0, 30°C, co-substrate HSP, FAD.
Another data set concerns O=C(O)CCC(=O)c1ccc(O)nc1. The following applies: 50 mM phosphate buffer pH 8.0, 30°C, co-substrate NADH, FAD.

Turning to “HSP hydroxylase (6-hydroxy-3-succinoylpyridine hydroxylase) (Agrobacterium tumefaciens)”, the Km in data set [1] was found to be 350 ± 40 µM; in data set [2] it was 100 ± 10 µM; with O=C(O)CCC(=O)c1ccc(O)nc1, 150 ± 20 µM.
